The test addresses PfCelTOS. Briefly: cross-linking.

As usually defined, the stoichiometry N is the number of molecules, sites or subunits per partner or assembly.

On to PfCelTOS (natural protein), for which the stoichiometry N amounted to 2.

The values above are taken from publication doi:10.1101/2022.09.01.504486.
